Measurements taken from paper PMC9352680, “A comprehensive thermodynamic model for RNA binding by the Saccharomyces cerevisiae Pumilio protein PUF4”.

T1: PUF4 RNA-binding domain (Saccharomyces cerevisiae, UniProt P25339 537-888)
T1 sequence: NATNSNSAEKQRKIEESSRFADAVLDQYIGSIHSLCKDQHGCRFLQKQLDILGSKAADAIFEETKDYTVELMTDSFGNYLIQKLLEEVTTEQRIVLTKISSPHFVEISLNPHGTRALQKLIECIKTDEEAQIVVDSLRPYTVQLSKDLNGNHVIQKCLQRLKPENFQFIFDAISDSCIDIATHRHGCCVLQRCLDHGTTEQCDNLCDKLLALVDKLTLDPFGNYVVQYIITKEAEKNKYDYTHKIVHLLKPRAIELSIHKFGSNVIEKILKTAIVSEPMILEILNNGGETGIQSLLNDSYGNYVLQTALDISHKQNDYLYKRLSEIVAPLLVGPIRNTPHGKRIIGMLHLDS


Molecular target: T1, PUF4 RNA-binding domain
Assay: Mg; RNA-MaP; 20 mM Na-HEPES pH 7.4, 30 mM KOAc, 0.75 mM MgCl2, 0.1% Tween-20, 5% glycerol, 0.1 mg/mL BSA, 2 mM DTT; 25 C; 0.0125-409.6 nM protein
Conditions: tags: N-His6-TEV cleaved; C-SNAP kept, Cy3B-labelled; label: tethered on chip by stalled RNA polymerase

Binder	Kd
UCUCUUUCUAUAUAUCUCUU (ssRNA) [Ia_S1_P3E.1_K3.1_C3.1_H3.1_[G2C]_A3.1_F3.1_T3.1]	> 2300 nM
Ib_S2_P5E.1_K5.1_C5.1_H5.1_[T3C]_A5.1_F5.1_[A10T]_T5.1 (ssRNA) RNA: UUUGAUUAAUAUGAUAUCGUUCUUUCUUGCAUUAUUUUUCUUUCUCGAUAUCAUAUUAAUCUUU	2020 nM
Ib_S2_P5E.1_K5.1_C5.1_H5.1_A5.1_[A7T]_F5.1_[T9A]_T5.1 (ssRNA) RNA: UUUGAUUAAUAUGAUAUCGUUCUUUCUUGUAUUUUAAUUCUUUCUCGAUAUCAUAUUAAUCUUU	2.01 nM
Ia_S2_P5E.1_K5.1_C5.1_H5.1_A5.1_F5.1_[T8A]_T5.1 (ssRNA) RNA: UUUGAUUAAUAUGAUAUCGUUCUUUCUUGUAUUAAUAUUCUUUCUCGAUAUCAUAUUAAUCUUU	6.54 nM
Ib_S2_P5E.1_K5.1_C5.1_H5.1_A5.1_[T5C]_F5.1_[T9C]_T5.1 (ssRNA) RNA: UUUGAUUAAUAUGAUAUCGUUCUUUCUUGUACUAUCAUUCUUUCUCGAUAUCAUAUUAAUCUUU	16.9 nM
Ib_S2_P5E.1_K5.1_C5.1_H5.1_A5.1_[T5G]_F5.1_[T8C]_T5.1 (ssRNA) RNA: UUUGAUUAAUAUGAUAUCGUUCUUUCUUGUAGUACUAUUCUUUCUCGAUAUCAUAUUAAUCUUU	12.9 nM
Ib_S2_P5E.1_K5.1_C5.1_H5.1_[A4C]_A5.1_F5.1_[A10C]_T5.1 (ssRNA) RNA: UUUGAUUAAUAUGAUAUCGUUCUUUCUUGUCUUAUUCUUCUUUCUCGAUAUCAUAUUAAUCUUU	572 nM
Ib_S2_P5E.1_K5.1_C5.1_H5.1_A5.1_[A7C]_F5.1_[A10C]_T5.1 (ssRNA) RNA: UUUGAUUAAUAUGAUAUCGUUCUUUCUUGUAUUCUUCUUCUUUCUCGAUAUCAUAUUAAUCUUU	14.5 nM
Ib_S2_P5E.1_K5.1_C5.1_H5.1_A5.1_[T5G]_F5.1_[T9A]_T5.1 (ssRNA) RNA: UUUGAUUAAUAUGAUAUCGUUCUUUCUUGUAGUAUAAUUCUUUCUCGAUAUCAUAUUAAUCUUU	5.43 nM
Ib_S2_P5E.1_K5.1_C5.1_H5.1_A5.1_[A7T]_F5.1_[A10C]_T5.1 (ssRNA) RNA: UUUGAUUAAUAUGAUAUCGUUCUUUCUUGUAUUUUUCUUCUUUCUCGAUAUCAUAUUAAUCUUU	13 nM
Ib_S2_P5E.1_K5.1_C5.1_H5.1_A5.1_[T5C]_F5.1_[T8C]_T5.1 (ssRNA) RNA: UUUGAUUAAUAUGAUAUCGUUCUUUCUUGUACUACUAUUCUUUCUCGAUAUCAUAUUAAUCUUU	2.86 nM
Ib_S2_P5E.1_K5.1_C5.1_H5.1_A5.1_[T6A]_F5.1_[A10G]_T5.1 (ssRNA) RNA: UUUGAUUAAUAUGAUAUCGUUCUUUCUUGUAUAAUUGUUCUUUCUCGAUAUCAUAUUAAUCUUU	7.49 nM
Ib_S2_P5E.1_K5.1_C5.1_H5.1_A5.1_[T6C]_F5.1_[A10C]_T5.1 (ssRNA) RNA: UUUGAUUAAUAUGAUAUCGUUCUUUCUUGUAUCAUUCUUCUUUCUCGAUAUCAUAUUAAUCUUU	6.38 nM
Ic_S2_P5E.1_K5.1_C5.1_H5.1_A5.1_[A7G]_F5.1_[T8G]_T5.1 (ssRNA) RNA: UUUGAUUAAUAUGAUAUCGUUCUUUCUUGUAUUGGUAUUCUUUCUCGAUAUCAUAUUAAUCUUU	62.8 nM
Ib_S2_P5E.1_K5.1_C5.1_H5.1_A5.1_[A7T]_F5.1_[T8A]_T5.1 (ssRNA) RNA: UUUGAUUAAUAUGAUAUCGUUCUUUCUUGUAUUUAUAUUCUUUCUCGAUAUCAUAUUAAUCUUU	3.83 nM
Ia_S2_P5E.1_K5.1_C5.1_H5.1_A5.1_F5.1_[A10G]_T5.1 (ssRNA) RNA: UUUGAUUAAUAUGAUAUCGUUCUUUCUUGUAUUAUUGUUCUUUCUCGAUAUCAUAUUAAUCUUU	7.81 nM
Ib_S2_P5E.1_K5.1_C5.1_H5.1_A5.1_[T5A]_F5.1_[A10T]_T5.1 (ssRNA) RNA: UUUGAUUAAUAUGAUAUCGUUCUUUCUUGUAAUAUUUUUCUUUCUCGAUAUCAUAUUAAUCUUU	9.98 nM
Ib_S2_P5E.1_K5.1_C5.1_H5.1_A5.1_[T6A]_F5.1_[A10T]_T5.1 (ssRNA) RNA: UUUGAUUAAUAUGAUAUCGUUCUUUCUUGUAUAAUUUUUCUUUCUCGAUAUCAUAUUAAUCUUU	6.98 nM
Ib_S2_P5E.1_K5.1_C5.1_H5.1_A5.1_[T5C]_F5.1_[T8A]_T5.1 (ssRNA) RNA: UUUGAUUAAUAUGAUAUCGUUCUUUCUUGUACUAAUAUUCUUUCUCGAUAUCAUAUUAAUCUUU	4.42 nM
Ic_S2_P5E.1_K5.1_C5.1_H5.1_A5.1_[T6A]_F5.1_[T9C]_T5.1 (ssRNA) RNA: UUUGAUUAAUAUGAUAUCGUUCUUUCUUGUAUAAUCAUUCUUUCUCGAUAUCAUAUUAAUCUUU	34 nM
Ia_S2_P5E.1_K5.1_C5.1_H5.1_A5.1_F5.1_[A10C]_T5.1 (ssRNA) RNA: UUUGAUUAAUAUGAUAUCGUUCUUUCUUGUAUUAUUCUUCUUUCUCGAUAUCAUAUUAAUCUUU	12.7 nM
Ia_S2_P5E.1_K5.1_C5.1_H5.1_A5.1_F5.1_[T8C]_T5.1 (ssRNA) RNA: UUUGAUUAAUAUGAUAUCGUUCUUUCUUGUAUUACUAUUCUUUCUCGAUAUCAUAUUAAUCUUU	2.99 nM
Ic_S2_P5E.1_K5.1_C5.1_H5.1_A5.1_[A7T]_F5.1_[A10T]_T5.1 (ssRNA) RNA: UUUGAUUAAUAUGAUAUCGUUCUUUCUUGUAUUUUUUUUCUUUCUCGAUAUCAUAUUAAUCUUU	18.3 nM

Binder	Kd
Ib_S2_P5E.1_K5.1_C5.1_H5.1_A5.1_[T6C]_F5.1_[A10T]_T5.1 (ssRNA) RNA: UUUGAUUAAUAUGAUAUCGUUCUUUCUUGUAUCAUUUUUCUUUCUCGAUAUCAUAUUAAUCUUU	4.73 nM
Ib_S2_P5E.1_K5.1_C5.1_H5.1_A5.1_[T5G]_F5.1_[A10G]_T5.1 (ssRNA) RNA: UUUGAUUAAUAUGAUAUCGUUCUUUCUUGUAGUAUUGUUCUUUCUCGAUAUCAUAUUAAUCUUU	84.5 nM
Ib_S2_P5E.1_K5.1_C5.1_H5.1_A5.1_[A7T]_F5.1_[A10G]_T5.1 (ssRNA) RNA: UUUGAUUAAUAUGAUAUCGUUCUUUCUUGUAUUUUUGUUCUUUCUCGAUAUCAUAUUAAUCUUU	10.8 nM
Ib_S2_P5E.1_K5.1_C5.1_H5.1_A5.1_[T6A]_F5.1_[T8C]_T5.1 (ssRNA) RNA: UUUGAUUAAUAUGAUAUCGUUCUUUCUUGUAUAACUAUUCUUUCUCGAUAUCAUAUUAAUCUUU	5.31 nM
Ib_S2_P5E.1_K5.1_C5.1_H5.1_A5.1_[T6A]_F5.1_[T9A]_T5.1 (ssRNA) RNA: UUUGAUUAAUAUGAUAUCGUUCUUUCUUGUAUAAUAAUUCUUUCUCGAUAUCAUAUUAAUCUUU	1.12 nM
Ib_S2_P5E.1_K5.1_C5.1_H5.1_A5.1_[T5C]_F5.1_[A10C]_T5.1 (ssRNA) RNA: UUUGAUUAAUAUGAUAUCGUUCUUUCUUGUACUAUUCUUCUUUCUCGAUAUCAUAUUAAUCUUU	4.69 nM
Ib_S2_P5E.1_K5.1_C5.1_H5.1_A5.1_[T5G]_F5.1_[T8A]_T5.1 (ssRNA) RNA: UUUGAUUAAUAUGAUAUCGUUCUUUCUUGUAGUAAUAUUCUUUCUCGAUAUCAUAUUAAUCUUU	31.4 nM
Ib_S2_P5E.1_K5.1_C5.1_H5.1_A5.1_[T5C]_F5.1_[A10T]_T5.1 (ssRNA) RNA: UUUGAUUAAUAUGAUAUCGUUCUUUCUUGUACUAUUUUUCUUUCUCGAUAUCAUAUUAAUCUUU	3.1 nM
Ib_S2_P5E.1_K5.1_C5.1_H5.1_A5.1_[T5G]_F5.1_[A10C]_T5.1 (ssRNA) RNA: UUUGAUUAAUAUGAUAUCGUUCUUUCUUGUAGUAUUCUUCUUUCUCGAUAUCAUAUUAAUCUUU	61.5 nM
Ib_S2_P5E.1_K5.1_C5.1_H5.1_A5.1_[T5A]_F5.1_[T8C]_T5.1 (ssRNA) RNA: UUUGAUUAAUAUGAUAUCGUUCUUUCUUGUAAUACUAUUCUUUCUCGAUAUCAUAUUAAUCUUU	7.72 nM
Ic_S2_P5E.1_K5.1_C5.1_H5.1_A5.1_[T6C]_F5.1_[T9A]_T5.1 (ssRNA) RNA: UUUGAUUAAUAUGAUAUCGUUCUUUCUUGUAUCAUAAUUCUUUCUCGAUAUCAUAUUAAUCUUU	0.834 nM
Ib_S2_P5E.1_K5.1_C5.1_H5.1_A5.1_[T5A]_F5.1_[T9A]_T5.1 (ssRNA) RNA: UUUGAUUAAUAUGAUAUCGUUCUUUCUUGUAAUAUAAUUCUUUCUCGAUAUCAUAUUAAUCUUU	2.52 nM
Ib_S2_P5E.1_K5.1_C5.1_H5.1_A5.1_[A7T]_F5.1_[T8C]_T5.1 (ssRNA) RNA: UUUGAUUAAUAUGAUAUCGUUCUUUCUUGUAUUUCUAUUCUUUCUCGAUAUCAUAUUAAUCUUU	3.48 nM
Ib_S2_P5E.1_K5.1_C5.1_H5.1_A5.1_[A7C]_F5.1_[T8A]_T5.1 (ssRNA) RNA: UUUGAUUAAUAUGAUAUCGUUCUUUCUUGUAUUCAUAUUCUUUCUCGAUAUCAUAUUAAUCUUU	8.24 nM
Ib_S2_P5E.1_K5.1_C5.1_H5.1_A5.1_[A7G]_F5.1_[T9A]_T5.1 (ssRNA) RNA: UUUGAUUAAUAUGAUAUCGUUCUUUCUUGUAUUGUAAUUCUUUCUCGAUAUCAUAUUAAUCUUU	10.6 nM
Ib_S2_P5E.1_K5.1_C5.1_H5.1_[A4C]_A5.1_F5.1_[A10T]_T5.1 (ssRNA) RNA: UUUGAUUAAUAUGAUAUCGUUCUUUCUUGUCUUAUUUUUCUUUCUCGAUAUCAUAUUAAUCUUU	180 nM
Ib_S2_P5E.1_K5.1_C5.1_H5.1_A5.1_[T5G]_F5.1_[T9C]_T5.1 (ssRNA) RNA: UUUGAUUAAUAUGAUAUCGUUCUUUCUUGUAGUAUCAUUCUUUCUCGAUAUCAUAUUAAUCUUU	104 nM
Ib_S2_P5E.1_K5.1_C5.1_H5.1_A5.1_[T6C]_F5.1_[T8C]_T5.1 (ssRNA) RNA: UUUGAUUAAUAUGAUAUCGUUCUUUCUUGUAUCACUAUUCUUUCUCGAUAUCAUAUUAAUCUUU	3.8 nM
Ib_S2_P5E.1_K5.1_C5.1_H5.1_A5.1_[T6A]_F5.1_[T8A]_T5.1 (ssRNA) RNA: UUUGAUUAAUAUGAUAUCGUUCUUUCUUGUAUAAAUAUUCUUUCUCGAUAUCAUAUUAAUCUUU	5.15 nM
Ib_S2_P5E.1_K5.1_C5.1_H5.1_[A4G]_A5.1_F5.1_[A10C]_T5.1 (ssRNA) RNA: UUUGAUUAAUAUGAUAUCGUUCUUUCUUGUGUUAUUCUUCUUUCUCGAUAUCAUAUUAAUCUUU	106 nM
Ib_S2_P5E.1_K5.1_C5.1_H5.1_A5.1_[T6A]_F5.1_[A10C]_T5.1 (ssRNA) RNA: UUUGAUUAAUAUGAUAUCGUUCUUUCUUGUAUAAUUCUUCUUUCUCGAUAUCAUAUUAAUCUUU	6.16 nM
Ic_S2_P5E.1_K5.1_C5.1_H5.1_A5.1_[A7C]_F5.1_[T9A]_T5.1 (ssRNA) RNA: UUUGAUUAAUAUGAUAUCGUUCUUUCUUGUAUUCUAAUUCUUUCUCGAUAUCAUAUUAAUCUUU	2.31 nM
